Test results from US20020176866A1.
Non-standard residues stand in square brackets, D forms with d. No end group written: not given here.

What was measured:
[1] = target: rat MHC class II (I-A or I-E) on splenic adherent cells (antigen presenting cells) (rat); test: competition with 10 µM biotin-labeled MBP native peptide on rat splenic adherent cells, flow cytometry; competitor at 100 µM
[2] = target: rat MHC class II (I-A or I-E) on splenic adherent cells (antigen presenting cells) (rat); test: competition with 10 µM biotin-labeled MBP (87-99) on rat splenic adherent cells, flow cytometry; competitor at 200 µM

Binder: VVHFFKNIVTPRT [MBP (87-99), human myelin basic protein residues 87-99]
- percent inhibition of binding at 100 µM [1]: 40%
- percent inhibition of binding at 200 µM [2]: 68.4%

Binder: VV[dH]FFANIVTPRT [h88/A91, peptide analog of MBP (87-99) with D-histidine at residue 88 and alanine at residue 91]
- percent inhibition of binding at 200 µM [2]: 67.6%

Binder: D[dA]NPVVHAFANIVTPRT [a83, A89, A91 peptide analog of human myelin basic protein]
- percent inhibition of binding at 100 µM [1]: 25%
